For assay [1], the target named is T1, trypsin (Bos taurus, UniProt P00760).
T1 chain: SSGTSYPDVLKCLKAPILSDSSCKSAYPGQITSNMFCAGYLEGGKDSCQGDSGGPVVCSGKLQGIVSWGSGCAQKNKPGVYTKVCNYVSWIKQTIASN
Kind of assay: SPR. (In general: In SPR one partner is held on a chip, and binding of the other changes the refractive index at the surface.)

The next assay has as its target alpha-chymotrypsin (Bos taurus, UniProt P00766). Kind of assay: SPR.
In assay [2] the target is T1, trypsin. Kind of assay: enzyme inhibition (Dixon, BAPNA).

Positions count from the first letter of the chain named.

The Kd is the equilibrium constant for the complex coming apart. A word on the Ki: it is the equilibrium dissociation constant of an inhibitor or competing ligand from its target. A low value points to a stronger hold on the target.

B1: HCRG2 (protein)
chain: RGICLEPKVVGPCKARIRRFYYDSETGKCTPFIYGGCGGNGNNFETLHACRGICRA
For the molecule B1, the dissociation constant Kd in the assay with trypsin [1] was 0.68 nM; with alpha-chymotrypsin, 1.6 nM. In addition, the inhibition constant Ki with trypsin [2] was 50 nM.

B2: HCRG1 (protein)
chain: B1 chain with L5S, R16G, I17L, K28E, T30K, G38K, G41K
In the case of B2, the dissociation constant (Kd) with trypsin [1] came out at 0.22 nM; with alpha-chymotrypsin, 1.8 nM. The molecule further returned an inhibitory constant (Ki) with trypsin [2] of 28 nM.

(Values after publication PMC4626678 (2015).)
